The text below walks through data of US20220184181A1 (Stanford University, published 2022).

This assay addresses Met receptor on MDCK cells (UniProt Q75ZY9 25-1382, limits assumed). Nature of the assay: cell-based or functional assay.

B1: recombinant Aras-4, soluble (ligand)
chain: YAEGQGKRRNTIHEFKKSAKTTLIKIDPALRIKTEKANTADQCANRCTRSKGLPFTCKAFVFDKARKRCLWFPFNSMSSGVKKEFGHEFDLYENKAYIRDCIIGRGRNYRGTVSITKSGIKCQPWSAMIPHEHSFLPSSYRGEDLRENYCRNPRGEEGGPWCYTSDPEVRYEVCDIPQCSEVE
In the case of B1, the “inhibition of HGF-induced activation of Met” value is approximately 5 fold lower concentration.
